According to paper PMC7224192, “MYC transcription activation mediated by OCT4 as a mechanism of resistance to 13-cisRA-mediated differentiation in neuroblastoma”:

B1: Biotin-MYC-1173/-1145 WT (OBS2) (dsDNA)
DNA 1: ACAAATGCAATGGGAGTTTATTCATAAC
DNA 2: GTTATGAATAAACTCCCATTGCATTTGT
B2: Biotin-MYC-1209/-1140 WT (OBS1+OBS2) (dsDNA)
DNA 1: CTGTGCATACATAATGCATAATACATGACTCCCCCCAACAAATGCAATGGGAGTTTATTCATAACGCGCT
DNA 2: AGCGCGTTATGAATAAACTCCCATTGCATTTGTTGGGGGGAGTCATGTATTATGCATTATGTATGCACAG
B3: Biotin-MYC-1209/-1166 WT (OBS1) (dsDNA)
DNA 1: CTGTGCATACATAATGCATAATACATGACTCCCCCCAACAAATGC
DNA 2: GCATTTGTTGGGGGGAGTCATGTATTATGCATTATGTATGCACAG

Columns and labels:
OCT4 [1] = biological target: T1, OCT4 (human, UniProt Q01860 1-360); assay: EMSA; mono-OCT4 complex; 20 fmol probe; Panomics EMSA Gel Shift Kit per manufacturer; OCT4 0.5 mg as printed (likely ug), biotin probe 20 fmol; buffer, pH and temperature not stated; details: protein: commercial; label: biotin at 5' end
OCT4 [2] = biological target: T1, OCT4; assay: EMSA; mono- and di-OCT4 complexes; 20 fmol probe; Panomics EMSA Gel Shift Kit per manufacturer; OCT4 0.5 mg as printed (likely ug), biotin probe 20 fmol; buffer, pH and temperature not stated; details: protein: commercial; label: biotin at 5' end

T1 sequence (Q01860 whole entry): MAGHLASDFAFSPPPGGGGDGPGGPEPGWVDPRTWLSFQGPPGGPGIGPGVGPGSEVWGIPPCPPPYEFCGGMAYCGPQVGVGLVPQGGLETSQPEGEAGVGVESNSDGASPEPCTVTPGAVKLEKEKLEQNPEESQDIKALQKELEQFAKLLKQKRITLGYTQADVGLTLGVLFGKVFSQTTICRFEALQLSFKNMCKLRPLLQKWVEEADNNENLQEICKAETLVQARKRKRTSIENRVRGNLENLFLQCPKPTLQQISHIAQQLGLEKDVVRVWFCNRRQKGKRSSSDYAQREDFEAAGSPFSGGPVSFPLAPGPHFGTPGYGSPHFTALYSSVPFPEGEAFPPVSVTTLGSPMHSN

Binder | binding result (OCT4 [1]) | binding result (OCT4 [2])
B1 | binds | 
B2 |  | binds
B3 |  | binds
